Experimental data published in the supplement of paper PMC7877785.
± gives the uncertainty stated by the source.

Test: self-splicing fitness, log relative to wild type (ln ratio); higher = more splicing; Tetrahymena group I intron in knt gene, E. coli kanamycin selection, DiMSum; sequences stand for … in CUCUCU…GGAGGGAAAAGUUAUCAGGCAUGCACCUGGUAGCUAGUCUUUAAACCAAUAGAUUGCAUCGGUUUAAAAGGCAAGACCGUCAAAUUGCGGGAAAGGGGUCAACAGCCGUUCAGUACCAAGUCUCAGGGGAAACUUUGAGAUGGCCUUGCAAAGGGUAUGGUAAUAAGCUGACGGACAUGGUCCUAACCACGCAGCCAAGUCCUAAGUCAACAGAUCUUCUGUUGAUAUGGAUGCAGUUCACAGACUAAAUGUCGGUCGGGGAAGAUGUAUUCUUCUCAUAAGAUAUAGUCGGACCUCUCCUUAAUGGGAGCUAGCGGAUGAAGUGAUGCAACACUGGAGCCGCUGGGAACUAAUUUGUAUGCGAAAGUAUAUUGAUUAGUUUUGGAGUACUCGUGGUCG
In short: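 Library with all eight P1ex-region intron nucleotides randomised, intron inside the knt kanamycin-resistance gene on pET-22b(+), in E. coli BL21(DE3). Cells grew overnight at 37°C or 30°C on LB agar with or without 25 μg/mL kanamycin (plus 100 μg/mL carbenicillin, 50 μM IPTG, 0.2% rhamnose), in six replicate transformations. Pooled colonies were amplicon-sequenced on Illumina HiSeq 2500. DiMSum fitness is the error-weighted combination of wild-type-normalised replicate fold changes, kanamycin versus none.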

| Sequence | self-splicing fitness (ln) (30 °C) | self-splicing fitness (ln) (37 °C) |
| --- | --- | --- |
| AAGCAGCAAUAUUACGGCCU | -0.182 ± 0.057 | 0.636 ± 0.074 |
| AAGCAGCAAUAUUACGGGCG | -0.645 ± 0.065 | -0.638 ± 0.099 |
| AAGCAGCAAUAUUACGGUGA | -0.827 ± 0.1 | -1.15 ± 0.092 |
| AAGCAGCAAUAUUACGUAGC | -3.19 ± 0.15 | -1.94 ± 0.16 |
| AAGCAGCAAUAUUACGUAUA | -2.85 ± 0.19 | -2.69 ± 0.19 |
| AAGCAGCAAUAUUACGUCGC | -2.95 ± 0.19 | -2.51 ± 0.31 |
| AAGCAGCAAUAUUACGUCGU | -2.51 ± 0.095 | -0.636 ± 0.12 |
| AAGCAGCAAUAUUACGUCUG | -4.47 ± 0.37 | -1.72 ± 0.26 |
| AAGCAGCAAUAUUACGUGAU | -2.39 ± 0.081 | -1.49 ± 0.11 |
| AAGCAGCAAUAUUACGUGGU | -4.16 ± 0.2 | -1.27 ± 0.11 |
| AAGCAGCAAUAUUACGUUAA | -1.76 ± 0.12 | -2.14 ± 0.14 |
| AAGGAGCAAUAUUACGAAUA | -2.18 ± 0.27 | -2.77 ± 0.38 |
| AAGGAGCAAUAUUACGACGA | -1.94 ± 0.15 | -0.382 ± 0.11 |
| AAGGAGCAAUAUUACGAGGC | -2.89 ± 0.17 | -2.41 ± 0.44 |
| AAGGAGCAAUAUUACGAUGG | -3.59 ± 0.27 | -2.11 ± 0.23 |
| AAGGAGCAAUAUUACGCACC | – | -1.22 ± 0.3 |
| AAGGAGCAAUAUUACGCAGU | -3.65 ± 0.43 | -1.38 ± 0.19 |
| AAGGAGCAAUAUUACGCAUA | -2.45 ± 0.49 | – |
| AAGGAGCAAUAUUACGCAUG | -3.28 ± 0.22 | -2.65 ± 0.22 |
| AAGGAGCAAUAUUACGCCCG | -1.88 ± 0.17 | -1.01 ± 0.22 |

| Sequence | self-splicing fitness (ln) (30 °C) | self-splicing fitness (ln) (37 °C) |
| --- | --- | --- |
| AAGGAGCAAUAUUACGCGAG | -2.86 ± 0.19 | -2.23 ± 0.19 |
| AAGGAGCAAUAUUACGCUCG | -0.454 ± 0.13 | -0.814 ± 0.17 |
| AAGGAGCAAUAUUACGCUGU | -2.59 ± 0.22 | -1.64 ± 0.23 |
| AAGGAGCAAUAUUACGGAAG | -3.7 ± 0.34 | -1.63 ± 0.25 |
| AAGGAGCAAUAUUACGGACU | -1.99 ± 0.16 | -0.907 ± 0.19 |
| AAGGAGCAAUAUUACGGCCA | -1.83 ± 0.19 | -1.66 ± 0.27 |
| AAGGAGCAAUAUUACGGCGU | -1.33 ± 0.13 | -0.923 ± 0.12 |
| AAGGAGCAAUAUUACGGGCG | -4.03 ± 0.39 | -1.87 ± 0.31 |
| AAGGAGCAAUAUUACGGUCA | – | -2.26 ± 0.32 |
| AAGGAGCAAUAUUACGGUUG | -2.52 ± 0.17 | -3.27 ± 0.32 |
| AAGGAGCAAUAUUACGUCUG | -1.18 ± 0.15 | -0.52 ± 0.27 |
| AAGGAGCAAUAUUACGUGGG | -2.68 ± 0.18 | -2.68 ± 0.17 |
| AAGGAGCAAUAUUACGUGGU | -2.94 ± 0.2 | -1.36 ± 0.22 |
| AAGGAGCAAUAUUACGUUAC | – | -1.53 ± 0.35 |
| AAGGAGCAAUAUUACGUUAG | -3.67 ± 0.18 | -2.95 ± 0.22 |
| AAGGAGCAAUAUUACGUUCU | -2.47 ± 0.14 | -1.09 ± 0.12 |
| AAGUAGCAAUAUUACGAAUC | -2.13 ± 0.22 | -1.4 ± 0.25 |
| AAGUAGCAAUAUUACGACUU | -0.629 ± 0.11 | -1.34 ± 0.13 |
| AAGUAGCAAUAUUACGAGAG | -3.09 ± 0.22 | -1.05 ± 0.21 |
